Results reported in patent US20150344570A1 (published 2015).

T1: FcγRIIa H (FcγRIIa, allotype with His at position 131), extracellular domain with C-terminal His tag (human, UniProt P12318 34-217)
T1 construct: extracellular domain; also called FcgRIIa H; 2aH; not shown: His tag at the C terminus
T1 sequence (looked up): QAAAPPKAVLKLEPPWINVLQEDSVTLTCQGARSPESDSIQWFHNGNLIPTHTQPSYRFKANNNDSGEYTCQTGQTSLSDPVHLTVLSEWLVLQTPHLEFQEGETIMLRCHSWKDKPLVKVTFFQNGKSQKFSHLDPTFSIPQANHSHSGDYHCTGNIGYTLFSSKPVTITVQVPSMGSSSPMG

T2: FcγRIIb, extracellular domain with C-terminal His tag (human, UniProt P31994 43-217)
T2 construct: extracellular domain; also called FcgRIIb; 2b; not shown: His tag at the C terminus
T2 sequence (looked up): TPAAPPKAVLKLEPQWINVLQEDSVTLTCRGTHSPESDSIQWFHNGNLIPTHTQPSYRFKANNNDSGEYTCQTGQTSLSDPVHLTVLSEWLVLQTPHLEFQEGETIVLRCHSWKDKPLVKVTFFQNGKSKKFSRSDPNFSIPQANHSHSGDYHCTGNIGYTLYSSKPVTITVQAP


Key:
[1] = target: T1, FcγRIIa H (FcγRIIa, allotype with His …); test: SPR (Biacore); He/Con_2aH divided by He/Con_2b (FcγRIIb)
[2] = target: T1, FcγRIIa H (FcγRIIa, allotype with His …); test: SPR (Biacore), relative binding vs GpH7-A5/GpH7-B3/GpL16-k0
[3] = target: T2, FcγRIIb, extracellular domain with …; test: as above

| Binder | He_2aH/2b (IIaH/IIb) [1] [ratio] | He/Con_2aH [2] | He/Con_2b [3] |
| --- | --- | --- | --- |
| GpH7-A5/GpH7-B3 variant A327_03V/GpL16-k0 (antibody, human IgG1, kappa, Heterodimerized anti-glypican-3 IgG1; mutation in one H chain only; also called He Ab) heavy 1: not shown heavy 2: not shown light: DIVMTQSPLSLPVTPGEPASISCQASESLVHSNRNTYLHWYLQKPGQSPQLLIYKVSNRFSGVPDRFSGSGSGTDFTLKISRVEAEDVGVYYCSQNTHVPPTFGQGTKVEIERTVAAPSVFIFPPSDEQLKSGTASVVCLLNNFYPREAKVQWKVDNALQSGNSQESVTEQDSKDSTYSLSSTLTLSKADYEKHKVYACEVTHQGLSSPVTKSFNRGEC | 0.54 | 51 % of HeCon Ab (=100) | 94.7 % of HeCon Ab (=100) |
| GpH7-A5/GpH7-B3 variant A327_07I/GpL16-k0 (antibody, human IgG1, kappa, Heterodimerized anti-glypican-3 IgG1; mutation in one H chain only; also called He Ab) heavy 1: not shown heavy 2: not shown light: DIVMTQSPLSLPVTPGEPASISCQASESLVHSNRNTYLHWYLQKPGQSPQLLIYKVSNRFSGVPDRFSGSGSGTDFTLKISRVEAEDVGVYYCSQNTHVPPTFGQGTKVEIERTVAAPSVFIFPPSDEQLKSGTASVVCLLNNFYPREAKVQWKVDNALQSGNSQESVTEQDSKDSTYSLSSTLTLSKADYEKHKVYACEVTHQGLSSPVTKSFNRGEC | 0.46 | 58.4 % of HeCon Ab (=100) | 127 % of HeCon Ab (=100) |
| GpH7-A5/GpH7-B3 variant A327_10E/GpL16-k0 (antibody, human IgG1, kappa, Heterodimerized anti-glypican-3 IgG1; mutation in one H chain only; also called He Ab) heavy 1: not shown heavy 2: not shown light: DIVMTQSPLSLPVTPGEPASISCQASESLVHSNRNTYLHWYLQKPGQSPQLLIYKVSNRFSGVPDRFSGSGSGTDFTLKISRVEAEDVGVYYCSQNTHVPPTFGQGTKVEIERTVAAPSVFIFPPSDEQLKSGTASVVCLLNNFYPREAKVQWKVDNALQSGNSQESVTEQDSKDSTYSLSSTLTLSKADYEKHKVYACEVTHQGLSSPVTKSFNRGEC | 0.65 | 91.3 % of HeCon Ab (=100) | 140 % of HeCon Ab (=100) |
| GpH7-A5/GpH7-B3 variant L328_09D/GpL16-k0 (antibody, human IgG1, kappa, Heterodimerized anti-glypican-3 IgG1; mutation in one H chain only; also called He Ab) heavy 1: not shown heavy 2: not shown light: DIVMTQSPLSLPVTPGEPASISCQASESLVHSNRNTYLHWYLQKPGQSPQLLIYKVSNRFSGVPDRFSGSGSGTDFTLKISRVEAEDVGVYYCSQNTHVPPTFGQGTKVEIERTVAAPSVFIFPPSDEQLKSGTASVVCLLNNFYPREAKVQWKVDNALQSGNSQESVTEQDSKDSTYSLSSTLTLSKADYEKHKVYACEVTHQGLSSPVTKSFNRGEC | 0.29 | 58.5 % of HeCon Ab (=100) | 199 % of HeCon Ab (=100) |
| GpH7-A5/GpH7-B3 variant A327_14T/GpL16-k0 (antibody, human IgG1, kappa, Heterodimerized anti-glypican-3 IgG1; mutation in one H chain only; also called He Ab) heavy 1: not shown heavy 2: not shown light: DIVMTQSPLSLPVTPGEPASISCQASESLVHSNRNTYLHWYLQKPGQSPQLLIYKVSNRFSGVPDRFSGSGSGTDFTLKISRVEAEDVGVYYCSQNTHVPPTFGQGTKVEIERTVAAPSVFIFPPSDEQLKSGTASVVCLLNNFYPREAKVQWKVDNALQSGNSQESVTEQDSKDSTYSLSSTLTLSKADYEKHKVYACEVTHQGLSSPVTKSFNRGEC | 0.51 | 45.6 % of HeCon Ab (=100) | 89.4 % of HeCon Ab (=100) |
| GpH7-A5/GpH7-B3 variant A327_09D/GpL16-k0 (antibody, human IgG1, kappa, Heterodimerized anti-glypican-3 IgG1; mutation in one H chain only; also called He Ab) heavy 1: not shown heavy 2: not shown light: DIVMTQSPLSLPVTPGEPASISCQASESLVHSNRNTYLHWYLQKPGQSPQLLIYKVSNRFSGVPDRFSGSGSGTDFTLKISRVEAEDVGVYYCSQNTHVPPTFGQGTKVEIERTVAAPSVFIFPPSDEQLKSGTASVVCLLNNFYPREAKVQWKVDNALQSGNSQESVTEQDSKDSTYSLSSTLTLSKADYEKHKVYACEVTHQGLSSPVTKSFNRGEC | 0.61 | 105 % of HeCon Ab (=100) | 172 % of HeCon Ab (=100) |
| GpH7-A5/GpH7-B3 variant L328_04F/GpL16-k0 (antibody, human IgG1, kappa, Heterodimerized anti-glypican-3 IgG1; mutation in one H chain only; also called He Ab) heavy 1: not shown heavy 2: not shown light: DIVMTQSPLSLPVTPGEPASISCQASESLVHSNRNTYLHWYLQKPGQSPQLLIYKVSNRFSGVPDRFSGSGSGTDFTLKISRVEAEDVGVYYCSQNTHVPPTFGQGTKVEIERTVAAPSVFIFPPSDEQLKSGTASVVCLLNNFYPREAKVQWKVDNALQSGNSQESVTEQDSKDSTYSLSSTLTLSKADYEKHKVYACEVTHQGLSSPVTKSFNRGEC | 0.33 | 71.7 % of HeCon Ab (=100) | 219 % of HeCon Ab (=100) |
| GpH7-A5/GpH7-B3 variant L328_03V/GpL16-k0 (antibody, human IgG1, kappa, Heterodimerized anti-glypican-3 IgG1; mutation in one H chain only; also called He Ab) heavy 1: not shown heavy 2: not shown light: DIVMTQSPLSLPVTPGEPASISCQASESLVHSNRNTYLHWYLQKPGQSPQLLIYKVSNRFSGVPDRFSGSGSGTDFTLKISRVEAEDVGVYYCSQNTHVPPTFGQGTKVEIERTVAAPSVFIFPPSDEQLKSGTASVVCLLNNFYPREAKVQWKVDNALQSGNSQESVTEQDSKDSTYSLSSTLTLSKADYEKHKVYACEVTHQGLSSPVTKSFNRGEC | 0.78 | 97.8 % of HeCon Ab (=100) | 126 % of HeCon Ab (=100) |
| GpH7-A5/GpH7-B3 variant A330_05P/GpL16-k0 (antibody, human IgG1, kappa, Heterodimerized anti-glypican-3 IgG1; mutation in one H chain only; also called He Ab) heavy 1: not shown heavy 2: not shown light: DIVMTQSPLSLPVTPGEPASISCQASESLVHSNRNTYLHWYLQKPGQSPQLLIYKVSNRFSGVPDRFSGSGSGTDFTLKISRVEAEDVGVYYCSQNTHVPPTFGQGTKVEIERTVAAPSVFIFPPSDEQLKSGTASVVCLLNNFYPREAKVQWKVDNALQSGNSQESVTEQDSKDSTYSLSSTLTLSKADYEKHKVYACEVTHQGLSSPVTKSFNRGEC | 0.63 | 85.7 % of HeCon Ab (=100) | 137 % of HeCon Ab (=100) |
